Laboratory results reported in patent US20220242937A1 (CHANGCHUN GENESCIENCE PHARMACEUTICAL, published 2022).

What follows are binders tested against human Aβ antigen (human) (assay: cell-based or functional assay).
Sequence of human Aβ antigen (human) (peptide, as listed by the source): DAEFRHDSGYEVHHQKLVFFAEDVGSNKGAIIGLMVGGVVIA

Binder	relative fluorescence intensity (ThT, Aβ polymerization; hIgG = 1.00)	relative value of LDH release (SHSY5Y cells with Aβ; hIgG = 1.00)
066-4.26.14H5L2 (antibody, V domains shown) VH: EVQLVESGGGLVQPGGSLRLSCVASGFTFRSYAMSWVRQAPGKGLEWVASISTTSNTYYPDSVKGRFTTSRDNSKNTVYLQMSSLRAEDTAVYYCGRGVITNQAWFAYWGQGTLVTVSS VL: DIVLTQSPATLSVSPGERATLSCRASQSISNNLHWYQQKPGQAPRLLIKYASQSISGIPARFSGSGSGTDFTLTISSLQSEDFAVYFCQQSNSWPLTFGGGTKVEIK	0.67	1.26
066-4.26.14H5L1 (antibody, V domains shown) VH: EVQLVESGGGLVQPGGSLRLSCVASGFTFRSYAMSWVRQAPGKGLEWVASISTTSNTYYPDSVKGRFTTSRDNSKNTVYLQMSSLRAEDTAVYYCGRGVITNQAWFAYWGQGTLVTVSS VL: DIVLTQSPATLSVSPGERVTLSCRASQSISNNLHWYQQKSGQAPRLLIKYASQSISGIPSRFSGSGSGTDFTLTISSLQSEDFAVYFCQQSNSWPLTFGGGTQVEIK	0.68	1.37
066-4.26.14H2L2 (antibody, V domains shown) VH: EVQLVESGGGLVKPGGSLRLSCAASGFTFRSYAMSWVRQTPEKRLEWVASISTTSNTYYPDSVKGRFTTSRDNAKNSVYLQMSSLRAEDTAVYYCGRGVITNQAWFAYWGQGTTVTVSS VL: DIVLTQSPATLSVSPGERATLSCRASQSISNNLHWYQQKPGQAPRLLIKYASQSISGIPARFSGSGSGTDFTLTISSLQSEDFAVYFCQQSNSWPLTFGGGTKVEIK	0.62	1.41
066-4.26.14H4L2 (antibody, V domains shown) VH: EVQLVESGGGLVQPGGSLRLSCAASGFTFRSYAMSWVRQAPGKGLEWVASISTTSNTYYPDSVKGRFTTSRDNAKNSVYLQMSSLRDEDTAMYYCGRGVITNQAWFAYWGQGILVTVSS VL: DIVLTQSPATLSVSPGERATLSCRASQSISNNLHWYQQKPGQAPRLLIKYASQSISGIPARFSGSGSGTDFTLTISSLQSEDFAVYFCQQSNSWPLTFGGGTKVEIK	0.7	1.3
066-4.26.14 (antibody, V domains shown) VH: EVKLVESGGGLVKPGGSLKLSCAASGFTFRSYAMSWVRQTPEKRLEWVASISTTSNTYYPDSVKGRFTTSRDNARNIVYLQMSSLRSDDTAMYYCGRGVITNQAWFAYWGQGTLVTVSA VL: DIVLTQSPATLSVTPGDSVSLSCRASQSISNNLHWYQQKSHESPRLLIKYASQSISGIPSRFSGSGSGTDFTLSVNNVGTEDFGMYFCQQSNSWPLTFGAGTKLELK	0.7	1.2
066-4.26.14H2L3 (antibody, V domains shown) VH: EVQLVESGGGLVKPGGSLRLSCAASGFTFRSYAMSWVRQTPEKRLEWVASISTTSNTYYPDSVKGRFTTSRDNAKNSVYLQMSSLRAEDTAVYYCGRGVITNQAWFAYWGQGTTVTVSS VL: DIVLTQSPDFQSVTPKEKVTISCRASQSISNNLHWYQQKPDQSPKLLIKYASQSISGIPSRFSGSGSGTDFTLTINSLEAEDAAAYFCQQSNSWPLTFGPGTKVEIK	0.67	1.42
mouse-human chimeric antibody 066-4.26.14-chAb (antibody, human IgG1, kappa, V domains shown) VH: EVKLVESGGGLVKPGGSLKLSCAASGFTFRSYAMSWVRQTPEKRLEWVASISTTSNTYYPDSVKGRFTTSRDNARNIVYLQMSSLRSDDTAMYYCGRGVITNQAWFAYWGQGTLVTVSA VL: DIVLTQSPATLSVTPGDSVSLSCRASQSISNNLHWYQQKSHESPRLLIKYASQSISGIPSRFSGSGSGTDFTLSVNNVGTEDFGMYFCQQSNSWPLTFGAGTKLELKR	0.71	1.32
066-4.26.14H5L3 (antibody, V domains shown) VH: EVQLVESGGGLVQPGGSLRLSCVASGFTFRSYAMSWVRQAPGKGLEWVASISTTSNTYYPDSVKGRFTTSRDNSKNTVYLQMSSLRAEDTAVYYCGRGVITNQAWFAYWGQGTLVTVSS VL: DIVLTQSPDFQSVTPKEKVTISCRASQSISNNLHWYQQKPDQSPKLLIKYASQSISGIPSRFSGSGSGTDFTLTINSLEAEDAAAYFCQQSNSWPLTFGPGTKVEIK	0.78	1.41
